Kd data for 1 substance are collected here from paper PMC11392263.

A word on the Kd: it is the concentration at which binding is half-saturated.

This experiment addresses purified 206 kDa rFn (recombinant fibronectin) (UniProt P02751). As to the kind of experiment: SPR; Biacore T200, 25°C; rFn immobilised on CM5 chip at 8000 RU; rRlpA (0.016-0.500 μM) injected at 30 μl/min in 10 mM Hepes pH 7.4, 150 mM NaCl, 3 mM EDTA, 0.05% P20; 1:1 Langmuir model. A general note: In SPR one partner is held on a chip, and binding of the other changes the refractive index at the surface.

Chain of purified 206 kDa rFn (recombinant fibronectin) (P02751 32-2477): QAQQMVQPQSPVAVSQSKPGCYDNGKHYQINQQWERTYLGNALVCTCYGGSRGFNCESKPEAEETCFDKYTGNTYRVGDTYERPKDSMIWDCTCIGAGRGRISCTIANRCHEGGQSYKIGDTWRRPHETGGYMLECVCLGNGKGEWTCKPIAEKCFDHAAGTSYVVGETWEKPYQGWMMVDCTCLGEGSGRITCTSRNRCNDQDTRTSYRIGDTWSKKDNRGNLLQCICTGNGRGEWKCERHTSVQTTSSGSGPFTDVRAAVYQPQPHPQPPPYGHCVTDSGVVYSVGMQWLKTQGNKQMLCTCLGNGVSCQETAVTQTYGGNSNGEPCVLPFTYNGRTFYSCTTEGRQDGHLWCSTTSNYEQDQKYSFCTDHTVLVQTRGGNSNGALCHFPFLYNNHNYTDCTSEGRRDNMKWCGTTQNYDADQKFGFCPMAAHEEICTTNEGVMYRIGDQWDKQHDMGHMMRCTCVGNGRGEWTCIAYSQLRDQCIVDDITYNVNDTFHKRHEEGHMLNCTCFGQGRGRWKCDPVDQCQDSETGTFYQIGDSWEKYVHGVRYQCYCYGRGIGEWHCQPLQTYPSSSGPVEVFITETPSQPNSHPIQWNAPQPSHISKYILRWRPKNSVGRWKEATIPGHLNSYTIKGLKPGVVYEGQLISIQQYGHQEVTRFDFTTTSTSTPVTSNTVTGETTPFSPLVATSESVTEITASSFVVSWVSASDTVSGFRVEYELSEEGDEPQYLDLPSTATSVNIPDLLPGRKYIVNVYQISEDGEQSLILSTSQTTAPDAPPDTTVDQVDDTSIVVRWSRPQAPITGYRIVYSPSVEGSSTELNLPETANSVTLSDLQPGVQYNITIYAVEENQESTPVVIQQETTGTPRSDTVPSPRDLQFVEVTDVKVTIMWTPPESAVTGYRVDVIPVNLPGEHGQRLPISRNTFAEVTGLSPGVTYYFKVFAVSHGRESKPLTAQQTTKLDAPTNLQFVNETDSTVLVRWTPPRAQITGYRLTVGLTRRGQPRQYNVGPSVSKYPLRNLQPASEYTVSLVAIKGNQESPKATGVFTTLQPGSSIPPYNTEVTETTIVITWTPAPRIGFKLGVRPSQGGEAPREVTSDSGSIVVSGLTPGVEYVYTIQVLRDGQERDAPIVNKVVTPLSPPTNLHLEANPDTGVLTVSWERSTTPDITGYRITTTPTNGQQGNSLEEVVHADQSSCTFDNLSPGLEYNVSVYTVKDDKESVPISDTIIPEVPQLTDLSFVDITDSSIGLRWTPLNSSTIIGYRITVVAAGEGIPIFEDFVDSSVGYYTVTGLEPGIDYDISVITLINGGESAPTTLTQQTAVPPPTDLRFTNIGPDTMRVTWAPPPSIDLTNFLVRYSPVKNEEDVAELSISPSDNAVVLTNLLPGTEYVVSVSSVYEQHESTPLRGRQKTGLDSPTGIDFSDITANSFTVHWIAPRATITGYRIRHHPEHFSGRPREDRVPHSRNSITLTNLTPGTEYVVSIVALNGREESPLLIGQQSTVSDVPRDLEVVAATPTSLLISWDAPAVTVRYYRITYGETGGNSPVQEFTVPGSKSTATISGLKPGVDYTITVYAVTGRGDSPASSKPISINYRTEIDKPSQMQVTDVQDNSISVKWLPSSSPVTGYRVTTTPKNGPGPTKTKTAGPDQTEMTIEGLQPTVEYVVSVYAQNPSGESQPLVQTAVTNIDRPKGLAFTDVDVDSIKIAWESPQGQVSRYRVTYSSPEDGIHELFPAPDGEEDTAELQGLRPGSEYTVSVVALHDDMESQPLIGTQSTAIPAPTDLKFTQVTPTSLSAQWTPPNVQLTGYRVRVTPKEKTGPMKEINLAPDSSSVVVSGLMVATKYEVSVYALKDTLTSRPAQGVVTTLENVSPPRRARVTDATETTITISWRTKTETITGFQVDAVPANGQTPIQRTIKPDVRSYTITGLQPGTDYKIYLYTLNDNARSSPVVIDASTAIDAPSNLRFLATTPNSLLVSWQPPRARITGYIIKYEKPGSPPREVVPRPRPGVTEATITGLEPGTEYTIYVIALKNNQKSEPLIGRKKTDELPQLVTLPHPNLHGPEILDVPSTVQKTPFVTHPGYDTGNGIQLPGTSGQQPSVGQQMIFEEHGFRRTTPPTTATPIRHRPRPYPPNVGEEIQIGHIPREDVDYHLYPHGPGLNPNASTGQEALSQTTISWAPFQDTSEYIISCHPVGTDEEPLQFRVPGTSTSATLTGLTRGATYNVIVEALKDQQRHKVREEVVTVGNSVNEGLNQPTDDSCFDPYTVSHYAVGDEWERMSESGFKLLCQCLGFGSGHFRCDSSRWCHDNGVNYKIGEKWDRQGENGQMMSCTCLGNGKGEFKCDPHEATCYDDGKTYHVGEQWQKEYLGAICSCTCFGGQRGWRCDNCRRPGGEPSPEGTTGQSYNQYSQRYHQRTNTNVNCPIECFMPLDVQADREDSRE

Consider “GST-tagged RlpA recombinant protein (rare lipoprotein A of Glaesserella parasuis serotype 4) (natural protein; other documents disagree on this pair)”, for which the dissociation constant (Kd) was 1.6 nM.
